Experiment [1] deals with DENV3 envelope (E) glycoprotein, wildtype DENV3 (strain not named at the place) (Dengue virus serotype 3).
The target in experiment [2] is DENV3 envelope (E) glycoprotein, strain Phillippines/16562/1964 (Dengue virus serotype 3). The experiment can be described thus: live-virus capture ELISA. A general note: An ELISA detects its analyte on a solid surface through an enzyme-linked reagent.
In experiment [3] the target is DENV1 envelope (E) glycoprotein, strain Nauru/West Pac/1974 (Dengue virus serotype 1, UniProt P17763). The experiment is described as follows: cell-based or functional assay.

A value given as a limit tells only on which side of the number the result lay.

Usually EC50 stands for the concentration that produces a half-maximal response. High values mean weaker potency, low ones greater potency.

B1: DENV-419 (antibody, V domains shown)
VH: EMQLQESGPRLVKPSQTLSLTCTVSGGSTSSGGYYWSWFRQYPEKGLEWIGYIFSSVTTYYNPPLKSRVTISVDTSKNQFSLKLSSVTAADTAVYYCARSLHYYQSSGFLYWGRGIPVTVSA
VL: EIVLTQSPATLSLSPGDRATLSCRASQTVGDSLAWYQQKPGQAPRLLIYDVSNRATGIPARFSGSGSGTDFTLTISSLEPEDFAVYYCQQRASFVTFGRGTKVDIK
With B1, in experiment [1], the FRNT EC50, Vero-81 is less than 0.035 µg/mL. Also, in experiment [2], the EC50 was determined as 0.0444 µg/mL.

B2: DENV-144 (antibody, V domains shown)
VH: QVQLQESGPGLVKPSETLSLTCTVSGASISSYSWSWIRQPAGRGLEWLGRIYPSGNTNYSPSLKSRLTMSLDTSKNQFSMKLTSVSAADTAVYYCARDREQWPLYYGMDVWGQGTLVTVSS
VL: EIVLTQSPAILSLSPGDRATLSCRASQSVFTYLAWYQHKPGQAPRLLIYDASNRASGIPARFSGSGSGTDFTLTISSLEPEDFAVYYCQQRTKWPLAFGGGTKVEIK
On to B2, for which the “FRNT EC50, Vero-81 (WUSTL)” value in experiment [3] was 0.329 µg/mL.

Source of the values: patent publication US20230078330A1, “HUMAN ANTI-DENGUE ANTIBODIES AND METHODS OF USE THEREFOR” (published 2023).
